Data published in PMC8872386 (Chemical Science, 2021).
Ends that are not written are not given here.

What was measured:
Assay in all cases: fluorescence polarisation
[1] = molecular target: Sgo1 peptide (residues 446–466) bearing fluorescein (UniProt Q5FBB7)
[2] = molecular target: chemically synthesized full-length heterochromatin protein 1α without PTMs (21) (UniProt P45973 1-191)
[3] = molecular target: recombinant HP1α (UniProt P45973 1-191)
Chain of recombinant HP1α (P45973 whole entry): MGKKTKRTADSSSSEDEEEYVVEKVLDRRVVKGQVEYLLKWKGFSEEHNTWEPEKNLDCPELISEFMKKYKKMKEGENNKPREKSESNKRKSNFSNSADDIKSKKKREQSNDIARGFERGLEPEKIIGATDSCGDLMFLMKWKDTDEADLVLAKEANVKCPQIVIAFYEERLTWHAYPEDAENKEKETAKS

Chain of chemically synthesized full-length heterochromatin protein 1α without PTMs (21) (P45973 whole entry): as above

chemically synthesized HP1α ubiquitinated at K154 (21f) (from UniProt P45973 1-191; P0CG48 1-76)
Kd [1]: 1870 nM

NVSLYPVVKIRRLSLSPKKNK (peptide, UniProt Q5FBB7 446-466, looked up, also: fluorescein, position not given here) [Sgo1 peptide (residues 446–466) bearing fluorescein]
Kd [2]: 470 nM | Kd [3]: 510 nM
